Assay results published in the Human Domainome abundance scans (Beltran et al. 2025).
± gives the uncertainty stated by the source.

B1: Protein maelstrom homolog, residues 3 to 71; numbered along this chain, Q96JY0 (parent)
chain: NRKASRNAYYFFVQEKIPELRRRGLPVARVADAIPYCSSDWALLREEEKEKYAEMAREWRAAQGKDPGP

Variants of: B1
Experiment: abundance fitness (aPCA) (normalised: wild type 0, dead -1); higher = more abundant; growth selection in yeast, the domain comes from the species named
Conditions: Homo sapiens

P18E and P18A are within error of each other in abundance fitness: -0.306 ± 0.1 for the first, -0.376 ± 0.067 for the second.

P18G and P18S are within error of each other in abundance fitness: -0.31 ± 0.067 for the first, -0.4 ± 0.071 for the second.

Compared with P18V, P18L is lower in abundance fitness: -0.268 ± 0.057 for the first, -0.606 ± 0.1 for the second.

Compared with P18R, P18C is higher in abundance fitness: -0.526 ± 0.057 for the first, -0.358 ± 0.1 for the second.

P18N and P18F are within error of each other in abundance fitness: -0.532 ± 0.15 for the first, -0.286 ± 0.16 for the second.

P18Q and P18Y are within error of each other in abundance fitness: -0.338 ± 0.094 for the first, -0.673 ± 0.25 for the second.

P18H and P18M are within error of each other in abundance fitness: -0.019 ± 0.26 for the first, -0.263 ± 0.097 for the second.

P18K and P18I are within error of each other in abundance fitness: -0.498 ± 0.11 for the first, -0.452 ± 0.2 for the second.

P18T and P18D are within error of each other in abundance fitness: -0.411 ± 0.074 for the first, -0.313 ± 0.099 for the second.

Y10E and Y10D are within error of each other in abundance fitness: -0.065 ± 0.08 for the first, 0.185 ± 0.18 for the second.

First: Y10R
Second: Y10I
The abundance fitness of the first is higher: -0.358 ± 0.066 for the first, -0.657 ± 0.2 for the second.

Y10K and Y10S are within error of each other in abundance fitness: -0.454 ± 0.08 for the first, -0.552 ± 0.1 for the second.

Going from Y10P to Y10A, the abundance fitness rises from -1.07 ± 0.18 to -0.403 ± 0.075.

First: Y10V
Second: Y10W
The abundance fitness of the first is lower: -0.498 ± 0.092 for the first, -0.175 ± 0.1 for the second.

Compared with Y10Q, Y10N is higher in abundance fitness: -0.254 ± 0.079 for the first, 0.15 ± 0.29 for the second.

Going from Y10C to Y10F, the abundance fitness rises from -0.643 ± 0.11 to 0.085 ± 0.14.

Y10M and Y10T are within error of each other in abundance fitness: -0.361 ± 0.09 for the first, -0.427 ± 0.096 for the second.

First: Y10G
Second: Y10L
The abundance fitness of the first is lower: -0.5 ± 0.07 for the first, -0.332 ± 0.072 for the second.

K16Y and K16G are within error of each other in abundance fitness: -0.697 ± 0.46 for the first, -0.673 ± 0.1 for the second.

K16V and K16C are within error of each other in abundance fitness: -0.41 ± 0.086 for the first, -0.428 ± 0.25 for the second.

First: K16N
Second: K16W
The abundance fitness of the first is higher: 0.082 ± 0.22 for the first, -0.819 ± 0.18 for the second.

First: K16F
Second: K16A
The abundance fitness of the first is lower: -0.555 ± 0.26 for the first, -0.096 ± 0.12 for the second.

Compared with K16S, K16T is lower in abundance fitness: -0.141 ± 0.088 for the first, -0.375 ± 0.13 for the second.

K16R and K16M are within error of each other in abundance fitness: 0.031 ± 0.082 for the first, -0.041 ± 0.11 for the second.

K16Q and Y9L are within error of each other in abundance fitness: -0.028 ± 0.13 for the first, -0.007 ± 0.035 for the second.

Going from Y9W to Y9G, the abundance fitness falls from -0.242 ± 0.1 to -0.61 ± 0.074.

Y9Q and Y9M are within error of each other in abundance fitness: -0.033 ± 0.11 for the first, 0.026 ± 0.08 for the second.

Y9I and Y9C are within error of each other in abundance fitness: -0.09 ± 0.13 for the first, -0.289 ± 0.16 for the second.

Going from Y9T to Y9N, the abundance fitness rises from -0.615 ± 0.12 to -0.168 ± 0.17.

Y9R and Y9D are within error of each other in abundance fitness: -0.239 ± 0.06 for the first, -0.185 ± 0.22 for the second.

Y9S and Y9P are within error of each other in abundance fitness: -0.513 ± 0.1 for the first, -0.338 ± 0.08 for the second.

Compared with Y9K, Y9A is lower in abundance fitness: -0.037 ± 0.11 for the first, -0.53 ± 0.14 for the second.

Y9E and Y9H are within error of each other in abundance fitness: 0.001 ± 0.11 for the first, -0.137 ± 0.11 for the second.

First: Y9V
Second: Y9F
The abundance fitness of the first is lower: -0.222 ± 0.074 for the first, 0.18 ± 0.18 for the second.

First: F12W
Second: F12K
The abundance fitness of the first is higher: -0.404 ± 0.068 for the first, -0.851 ± 0.11 for the second.

F12G and F12N are within error of each other in abundance fitness: -0.531 ± 0.064 for the first, -0.624 ± 0.18 for the second.

F12R and F12E are within error of each other in abundance fitness: -0.797 ± 0.061 for the first, -0.778 ± 0.11 for the second.

F12L and F12S are within error of each other in abundance fitness: -0.713 ± 0.072 for the first, -0.7 ± 0.12 for the second.

Compared with F12Y, F12P is lower in abundance fitness: 0.013 ± 0.1 for the first, -0.869 ± 0.099 for the second.

Compared with F12M, F12H is lower in abundance fitness: -0.53 ± 0.047 for the first, -0.847 ± 0.26 for the second.

Going from F12D to F12I, the abundance fitness falls from -0.403 ± 0.13 to -0.97 ± 0.23.

F12V and F12C are within error of each other in abundance fitness: -0.757 ± 0.077 for the first, -0.621 ± 0.12 for the second.

Going from I17Q to I17F, the abundance fitness rises from -0.961 ± 0.2 to -0.323 ± 0.17.

Going from I17R to I17N, the abundance fitness falls from -0.501 ± 0.062 to -0.797 ± 0.21.

I17V and I17W are within error of each other in abundance fitness: -0.166 ± 0.055 for the first, -0.264 ± 0.07 for the second.

First: I17G
Second: I17L
The abundance fitness of the first is lower: -0.503 ± 0.064 for the first, -0.18 ± 0.075 for the second.

I17H and I17C are within error of each other in abundance fitness: -0.832 ± 0.24 for the first, -0.771 ± 0.23 for the second.

First: I17M
Second: I17A
The abundance fitness of the first is higher: -0.241 ± 0.075 for the first, -0.467 ± 0.084 for the second.

I17Y and I17K are within error of each other in abundance fitness: -0.818 ± 0.21 for the first, -0.687 ± 0.11 for the second.

First: I17P
Second: Q14E
The abundance fitness of the first is lower: -0.755 ± 0.15 for the first, 0.135 ± 0.08 for the second.

Compared with Q14M, Q14P is lower in abundance fitness: -0.023 ± 0.074 for the first, -0.724 ± 0.1 for the second.

First: Q14S
Second: Q14D
The abundance fitness of the first is lower: -0.196 ± 0.058 for the first, 0.054 ± 0.098 for the second.

Q14A and Q14L are within error of each other in abundance fitness: -0.171 ± 0.067 for the first, -0.079 ± 0.056 for the second.

Q14C and Q14V are within error of each other in abundance fitness: -0.148 ± 0.081 for the first, -0.265 ± 0.057 for the second.

Q14I and Q14G are within error of each other in abundance fitness: -0.228 ± 0.077 for the first, -0.303 ± 0.068 for the second.

Compared with Q14F, Q14H is lower in abundance fitness: -0.299 ± 0.12 for the first, -0.618 ± 0.19 for the second.

Q14W and Q14R are within error of each other in abundance fitness: -0.014 ± 0.072 for the first, -0.074 ± 0.056 for the second.

Q14T and Q14Y are within error of each other in abundance fitness: -0.186 ± 0.063 for the first, -0.145 ± 0.13 for the second.

V13L and V13G are within error of each other in abundance fitness: -0.32 ± 0.25 for the first, -0.797 ± 0.45 for the second.

V13I and V13F are within error of each other in abundance fitness: -0.375 ± 0.36 for the first, -0.532 ± 0.26 for the second.

First: L20C
Second: L20A
The abundance fitness of the first is higher: -0.611 ± 0.17 for the first, -1.1 ± 0.12 for the second.

L20G and L20I are within error of each other in abundance fitness: -0.739 ± 0.068 for the first, -0.636 ± 0.21 for the second.

First: L20H
Second: L20M
The abundance fitness of the first is lower: -0.953 ± 0.26 for the first, -0.334 ± 0.15 for the second.

L20P and L20N are within error of each other in abundance fitness: -0.989 ± 0.14 for the first, -0.642 ± 0.22 for the second.

L20D and L20K are within error of each other in abundance fitness: -0.772 ± 0.16 for the first, -0.88 ± 0.16 for the second.

F11Q and F11I are within error of each other in abundance fitness: -0.328 ± 0.1 for the first, -0.398 ± 0.17 for the second.

F11V and F11S are within error of each other in abundance fitness: -0.502 ± 0.088 for the first, -0.526 ± 0.077 for the second.

Compared with F11P, F11A is higher in abundance fitness: -0.776 ± 0.16 for the first, -0.265 ± 0.075 for the second.

First: F11T
Second: F11Y
The abundance fitness of the first is lower: -0.38 ± 0.18 for the first, -0.036 ± 0.13 for the second.

F11C and F11G are within error of each other in abundance fitness: -0.313 ± 0.22 for the first, -0.694 ± 0.18 for the second.

Compared with F11H, F11D is lower in abundance fitness: -0.107 ± 0.18 for the first, -0.705 ± 0.18 for the second.

F11N and F11R are within error of each other in abundance fitness: -0.512 ± 0.28 for the first, -0.674 ± 0.091 for the second.

Going from F11M to F11K, the abundance fitness falls from -0.072 ± 0.1 to -0.94 ± 0.2.

F11L and F11W are within error of each other in abundance fitness: -0.322 ± 0.07 for the first, -0.371 ± 0.15 for the second.

Compared with A8V, A8R is higher in abundance fitness: -0.796 ± 0.12 for the first, -0.385 ± 0.072 for the second.

A8T and A8S are within error of each other in abundance fitness: -0.325 ± 0.11 for the first, -0.177 ± 0.088 for the second.

Going from A8Y to E15D, the abundance fitness rises from -0.696 ± 0.17 to -0.241 ± 0.23.

E15H and E19D are within error of each other in abundance fitness: 0.023 ± 0.28 for the first, -0.093 ± 0.15 for the second.

Going from E19C to E19M, the abundance fitness rises from -0.548 ± 0.15 to -0.303 ± 0.088.

First: E19L
Second: E19Q
The abundance fitness of the first is higher: -0.412 ± 0.067 for the first, -0.623 ± 0.13 for the second.

E19H and E19K are within error of each other in abundance fitness: -0.54 ± 0.14 for the first, -0.686 ± 0.11 for the second.

E19N and E19P are within error of each other in abundance fitness: -0.966 ± 0.47 for the first, -0.733 ± 0.14 for the second.

E19S and E19V are within error of each other in abundance fitness: -0.204 ± 0.053 for the first, -0.25 ± 0.06 for the second.

E19R showed an abundance fitness of -0.674 ± 0.058.
